Experiment [1] addresses T1, human DLL3 antigen (human, UniProt Q9NYJ7 27-492, limits assumed).
T1 construct: also called immobilized human DLL3; recombinant human DLL3
T1 sequence (looked up): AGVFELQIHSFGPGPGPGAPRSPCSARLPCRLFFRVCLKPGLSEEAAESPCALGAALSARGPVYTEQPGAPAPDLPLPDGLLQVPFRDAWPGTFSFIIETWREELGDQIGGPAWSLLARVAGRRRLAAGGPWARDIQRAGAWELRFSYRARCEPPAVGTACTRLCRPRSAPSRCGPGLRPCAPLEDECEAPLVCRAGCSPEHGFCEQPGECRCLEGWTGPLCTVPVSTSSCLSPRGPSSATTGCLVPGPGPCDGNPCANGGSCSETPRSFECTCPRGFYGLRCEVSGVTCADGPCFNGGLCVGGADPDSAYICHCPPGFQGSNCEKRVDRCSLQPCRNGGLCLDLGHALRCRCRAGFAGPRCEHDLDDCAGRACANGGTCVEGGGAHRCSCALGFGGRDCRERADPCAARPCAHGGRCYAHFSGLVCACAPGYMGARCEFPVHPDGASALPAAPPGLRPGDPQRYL
Kind of experiment: SPR, Biacore 2000, human DLL3 antigen. A general note: In SPR one partner is held on a chip, and binding of the other changes the refractive index at the surface.
Procedure: Various methods were used to analyze the binding and immunochemical characteristics of selected DLL3 modulators generated as set forth above. […] Affinities and kinetic constants kₒₙ and koff of the selected modulators were measured using bio-layer interferometry analysis on a ForteBio RED (ForteBio, Inc.) or surface plasmon resonance using a Biacore 2000 each according to the manufacturer's instructions.
(§1) In this respect the humanized constructs (CDR grafted) were compared with “traditional” chimeric antibodies comprising the murine parent (or donor) heavy and light chain variable domains and a human constant region substantially equivalent to that used in the humanized constructs. With these constructs surface plasmon resonance (SPR) was conducted using a Biacore 2000 (GE Healthcare) to identify any subtle changes in rate constants brought about by the humanization process.

Experiment [2] concerns the target T1, human DLL3 antigen. Kind of experiment: SPR, Biacore 2000, 25 and 12.5 nM human DLL3 antigen, 1:1 Langmuir model.
Procedure: as §1
For experiment [3], the target named is T1, human DLL3 antigen. The experiment is described as follows: ELISA or flow cytometry screen. For orientation: An ELISA detects its analyte on a solid surface through an enzyme-linked reagent.

B1: hSC16.15 (antibody, V domains shown)
VH: QVQLVQSGAEVKKPGASVKVSCKASGYTFTRYWIHWIRQAPGQGLEWMGYINPTTVYTEFNQNFKDRVTMTRDTSTSTVYMELSSLRSEDTAVYYCARGGSNFFDYWGQGTTVTVSS
VL: AIQLTQSPSSLSASVGDRVTITCRASENIYYNLAWYQQKPGKAPKLLIYTANSLEDGVPSRFSGSGSGTDFTLTISSLQPEDFATYFCKQAYDVPPTFGGGTKLEIK
notes: humanized (CDR grafted); also called humanized SC16.15
Consider B1, for which the binding result with human DLL3 antigen [1] is listed as “binds”.

B2: SC16.15 (antibody, V domains shown)
VH: QVQLQQSGAELAKPGASVKMSCKASGYTFTRYWIHWIKQRPGQGLEWIGYINPTTVYTEFNQNFKDKATLTADKSSTTASMQLSSLTSEDSAVYYCARGGSNFFDYWGQGTTLTVSS
VL: DIQMTQSPASLAASVGETVAITCRASENIYYNLAWYQQKQGKSPQLLIYTANSLEDGVPSRFSGSGSGTQYSLKINSMQPEDSATYFCKQAYDVPPTFGGGTKLEIK
notes: murine mAb
As to B2, the Kd (usually the free concentration of one partner at which half of the binding sites on the other are occupied at equilibrium, for simple one-to-one binding) with human DLL3 antigen [2] is about 0.2 nM.

B3: hSC16.13 (antibody, V domains shown)
VH: QITLKESGPTLVKPTQTLTLTCTFSGFSLSTSGMGVGWIRQPPGKALEWLAHIWWDDVKRYSPSLKSRLTITKDTSKNQVVLTMTNMDPVDTATYYCARIVSFDNDVVSAMDYWGQGTLVTVSS
VL: DIQMTQSPSSLSASVGDRVTITCSASSSVSYMYWYQQKPGKAPKLLIYLTSNLASGVPSRFSGSGSGTDFTLTISSLQPEDFATYYCQQWRSNPFTFGQGTKLEIKR
notes: humanized (CDR grafted)
As for B3, the binding result with human DLL3 antigen [1] was “binds”.

B4: SC16.148 (antibody, V domains shown)
VH: QIQLVQSGPELKKPGETVKISCKASGYTLTNYGMNWVKQAPGKGLKWMGWINTYTGEPTYADDFKGRFAFSLETSARIVYLQINNLKNEDTATYFCAKYEAHEGFVYWGQGTLVTVSA
VL: QIVLTQSPAIMSASPGEKVTMTCSASSSVSYMYWYQQKPGSSPRLLIYDTSNLASGVPVRFSGSGSGTSYSLTISRMEAEDTATYYCQEWSNNPLTFGDGTKLELK
notes: murine mAb
As to B4, the binding result in the experiment with human DLL3 antigen [3] is listed as “binds”.

B5: SC16.147 (antibody, V domains shown)
VH: QIQLVQSGPELTKPGETVKISCKASGYTFTDYSLHWVKQALGKGLKWMGWINTETGEPAYADDFKGRFAFSLETSASTAYLQINDLKNEDTTTYFCGIYDGYAMDYWGQGTSVTVSS
VL: DIQMTQTASSLSASLGDRVTISCRASQDINNYLNWYQQKPDGTVKLLIYYTSRLHSGVPSRFSGSGSGTDYSLTISILEQEDIATYFCQQGDTLPWTFGGGTKLEIK
notes: murine mAb
B5: the binding result with human DLL3 antigen [3] is “binds”.

B6: hSC16.34 (antibody, V domains shown)
VH: QVQLVQSGAEVKKPGASVKVSCKASGYTFTNYGMNWVRQAPGQRLEWMGWINTYTGDPTYADDFKGRVTITRDTSASTAYMELSSLRSEDTAVYYCARIGGNSPSDYWGQGTTVTVSS
VL: DIQMTQSPSSLSASVGDRVTITCKASQSVSNDVAWYQQKPGKVPKLLIYYASNRYSGVPSRFSGSGSGTDFTLTISSLQPEDVATYFCQQDYSSPWTFGGGTKVEIK
notes: humanized (CDR grafted)
Consider B6, for which the binding result with human DLL3 antigen [1] is reported as “binds”.

B7: hSC16.56 (antibody, V domains shown)
VH: QVQLVQSGAEVKKPGASVKVSCKASGYTFTNYGMNWVRQAPGQGLEWMGWINTYTGEPTYADDFKGRVTMTTDTSTSTAYMELRSLRSDDTAVYYCARIGDSSPSDYWGQGTLVTVSS
VL: EIVMTQSPATLSVSPGERATLSCKASQSVSNDVVWYQQKPGQAPRLLIYYASNRYTGIPARFSGSGSGTEFTLTISSLQSEDFAVYYCQQDYTSPWTFGQGTKLEIKR
notes: humanized (CDR grafted)
B7: the binding result with human DLL3 antigen [1] is “binds”.
